Measurements from paper PMC7614388, “Diversification in the inositol tris/tetrakisphosphate kinase (ITPK) family: crystal structure and enzymology of the outlier AtITPK4” (Biochemical Journal, 2023).

Substrate: Nc1ncnc2c1ncn2[C@@H]1O[C@H](COP(=O)(O)OP(=O)(O)OP(=O)(O)O)[C@@H](O)[C@H]1O
Assay: HPLC kinase assay, Michaelis-Menten fit
Format: biochemical, Arabidopsis thaliana
Settings: 1 mM Ins(1,4,6)P3, ATP 0-5 mM, 6 mM MgCl2, 20 mM HEPES pH 7.3, 25 °C, 3 µM enzyme

B1: AtITPK4 (Arabidopsis thaliana) (protein)
chain: MKGVLLDESVLFSPESEDSSPSLRESVPSLLRLLRYSMIRTGISYGLDLPENKVDLLRKTAAEYSINCLPLETSLTSVTFGDTLKAWYSDGSILYVASSRKEEILRELSPSQLVVLLDVEGDSLEDPNIIHIHSLEELPMTICCINKKAMGDGAAIVAYIMKPSRVEDFAKRGALPMYPTSCGLIFLPLMFEFPLASQLKHADIIFHKATDEILSIELNCSDSKSSVAVTFSTGMEKLKKYMEDQNACAIVDPIRNIYPVVDRLKMQHILLGLEGLGAAGRKIRGACFLKIDSYDEPDLAQNLSRAGLSLPCIVKPQVACGVADAHSMAIVFRVEDFKNLNTPVPAIIQEYVDHSSRIFKFYVLGETIFHAVKKSIPSSSSLRKSAEENGLKPILFDSLKSLPVDSANQNPVSEIDLELVTEAATWLRKKLDLTIFGFDVVIQEGTGDHVIVDLNYLPSFKEVPDNIAVPAFWEAIRNRFDQHVQEKH
notes: full-length; pOPINE, non-cleavable C-terminal 6xHis tag kept; Ni-NTA purified; HAD-like domain 1-150, ATP-grasp kinase domain from 151; no evidence of homo-oligomers
In the case of B1, the Km is reported as 52 ± 7 µM.
